Assay results published in a protein production outcome set (Wang et al. 2014).

Assay: label from the status in PepcDB records

| Sequence | protein production |
| --- | --- |
| MKQMSITLIFIMAFTIIIHAVETSSYSIRLAGVRLKKIAVALSVVGMVLLISRTSNLLQAFLIGGIVDEAKLDSSIDLEHIIRLVLLSASIGTLLAIILYPTLTKLFGYVIQNFETDGSFIRMMKTNNIQKLKYTKKYVRFPKLEMIHRLRIGGIPKRIMLINMFATAIYTAGVLSALYASFLNPDYATNASTASGLVNGFATILLTVLLDPRIALLTERALQSENGAESMSKMYGWLMISRLFGTLLAQLLFVPGAYWILWIIELIH | failed |
| MYIVNSNKSRGSSVERYIVSRLRDKGFAVIRAPASGSKRKDHVPDIIALKSGVIILIEVKSRKNGQKIYIEKEQAEGIREFAKRSGGELFLGVKLPKMLRFIKFDMLRQTEGGNYAIDLETVEKGMELEDLVRYVESKISRTLDSFL | not failed |
| MIVRGGGDLATGVIQKLWHVGFKILVLETECPLAIRRTVSVCDAIFQKEQRVEDLVAVRITSLKDCAKCWQQNKLPVFVDQTASAIQQLKPLIVIDAILAKKNLGTHRGMAPITIALGPGFSAPQDVDVVIETMRGHRLGRLYFEGTALPNTGIPGEIGGKSAERVVHAPASGQVTHLKNIGDLVLKGEALFLIDQVPVYSPLTGTLRGLISEKVTCYQGLKCADVDPRPVEKVDCLTISDKARALGGAVLEAIFMIGRRKNVLLEHHHHHH | not failed |
| MAPVKLYMVEVIDKKEIAANERRSRENDVTGPEITHYYQVTFRLTTDDRKDLVLNIDKSSYQNIEPEMKGRLFMQGSRFVQFETDVPIDEQKLEHHHHHH | not failed |
| MYHGMNPSNGDGFLEQQQQQQQPQSPQRLLAVILWFQLALCFGPAQLTGGFDDLQVCADPGIPENGFRTPSGGVFFEGSVARFHCQDGFKLKGATKRLCLKHFNGTLGWIPSDNSICVQEDCRIPQIEDAEIHNKTYRHGEKLIITCHEGFKIRYPDLHNMVSLCRDDGTWNNLPICQGCLRPLASSNGYVNISELQTSFPVGTVISYRCFPGFKLDGSAYLECLQNLIWSSSPPRCLALEAQVCPLPPMVSHGDFVCHPRPCERYNHGTVVEFYCDPGYSLTSDYKYITCQYGEWFPSYQVYCIKSEQTWPSTHETLLTTWKIVAFTATSVLLVLLLVILARMFQTKFKAHFPPRGPPRSSSSDPDFVVVDGVPVMLPSYDEAVSGGLSALGPGYMASVGQGCPLPVDDQSPPAYPGSGDTDTGPGESETCDSVSGSSELLQSLYSPPRCQESTHPASDNPDIIASTAEEVASTSPGIDIADEIPLMEEDP | failed |
| MGSSHHHHHHSSGRENLYFQGMAGGKSMNVESYEKILRDRQRELYRRLHKIEADFEEPRNPDDEDRASERSNDEVLDELGQVGQDELRAIDAALARIASGTFGTCVKCGKRISEDRLKAVPYTPFCQECAAAL | not failed |
| MNSLDKLKTFIIILIIFSIGFFSRIETAELKGMNTADRAYFTDENGLPYMYEPDSYYNYRLTANILDHGHPGDKIINGTPWDLHSNYPPGNRVNYPPLILWISLLFHNFINLFIPFSLIETCFWLPAIIGPLAGIVMFFMVRRYAGDLPGLLSGVLLVLAPVYFSRTVPGFFDTDMFNIIFPLLVIFFLLKATETKNNYMFPLLLSSFSLALLSLSWNGWAYIFYIIIISSILYMTLCKLKGKAVMGFSRKIAVFVIISLLIIGLAGRLGYALIFPTFFKFTFKSLSAGGWPGIFESISELSAPTFDEFLSLPGPVNMGIGLFGFVIIGSIMLRDEIKRVHLPDFSWYPFILIGIWLIIGLAAYSLSTRFALLVIPPLIIFLGLLMGVMASYLKGSPSMRLRRSGNVFILSLVVMLSTISFIQAYEIQFVPIVDDDFVAASYWIKNETSMDTVVITEWGYGHPLATFSQRPVLMDGGMNPSTPRSYWVYHAFATNNESLSIGIFSMLSTSGNKAVELLNNRTGNTSLTVTILDDILGVNRIYAEKTLQEKYGIDPGFTGELLSYTHPTNKPFIILTKDDMIKWGHWYIYYGFWDFNRSRGYDYIYYVGSSNDTGQIRYYSNDVKFDLTSGASWENRKPYTTIIKYRNFKRVIEGDGKSDFSIIVLLDKNQAIVVDKRFQDSLFVKLVILKEETEHIKPIYKNNSTIIWTVR | failed |
| MSTPRPSLTLTLLQAREAAMSFFRPSLNQHGLTEQQWRVIRILRQQGEMESYQLANQACILRPSMTGVLARLERDGIVRRWKAPKDQRRVYVNLTEKGQQCFVSMSGDMEKNYQRIQERFGEEKLAQLLELLNELKKIKP | not failed |
| MTTIFPPIPDRLRPLLRIAFMCGILATLPILCDVYAADEPPAARDEARPEEAAEPAATSAPAPAEQPVTFAITTILVERNTLFASDRLQEVMAPFVGDGKTADDVEKAREALEKFHHDQGYPTVIVNIPEQSVEEGIIRLQVVEQRINTVTVTGNRYFSREMILGKFPSLQPGGIPHVPTLQAEFTKAGRNPDLKITPAMAPSREVGYVDVELKIEEKLPLHGSLELNNRSSHDTSALRLNGAIRYDNLWQREHSVGLQYQTAPEKTREVQILSGSYVLPDPWHDDRRIVFYGVWSDTNTFASLGDMQVLGKGIIVGGRYLIPLAGKGLYNHSATLGIDYKRFDESAGFKTRVSYLPLSTAYDASLQDSTGYTLFNAGLNFAFRGAVTDQSEMAVKRSEAKGNYLAAILGLERQQKLPLGMGLRARIDGQLSSEPLIPNEQFVAGGMDSVRGYKESEALGDNGFHGTVELRVPDITLGSAMSMTPYVFYDMAAVELKKPLPGENRSQTLQGTGAGVRGMLFKFLEYQVDFAVALSDSDRIKEGDQRVHFRVSCAF | failed |
| MREGSCPRLARCPGANWGHGRILHTRLHLASLPRPCYFFVTAYINGRETITASCKRSGVSPIPFRPMSPDFPLAPLDLAIIVGYFAVVGIIGYVVAQRIESGEDLFLAGRTLTWGTIGFSLFASNISSTTLIGLAGDAYRTGIAVSNYEWMAGIVLVFIAVFFVPFFIRSGLTTIPEYLEKRFDVRSRKYFSGLTIFTSVIIDTAGGIYAGTLVIKTFFPDLIPGMGPEMDFYVTCFILALIAGVYTAAGGLAAVVYTDILQAVILLVGSVFIAGITFAEFDFSWAQATAQLPEGHLSLMRPMGAEGLPWLGTLVGVPILGFYYWGLNQYIVQRILGARDLDNARWGAMLGGLLKLLPLFIMVLPGAFALQLYPDLGNPDQVFPTLVTDLLPVGIVGLVMAGLIAAIMSTIDSTLNSASTLITIDFVKPRWPDLTPQQVGTVGRVTTIILMLFAAVWAPQIREFPGLWSYIQSVLSYLVPPVVAVFLLGIFWPRTNGSGAFATLLGGHALSIAVFLCAQDGLLFADAPIDLHFTIIAGILTALCLGMLVAFSLTLGPPPAEEEIDDLTWANRVLETGPAMAWYKNYRVHAATVLALTAVMLVVFW | failed |
| MTTYTFDQVEEAIEQLYPDFTINTIEISGEGNDCIAYEINGNFIFKFPKHSRASINLLNEVTVLKTIHNELSLPIPEVVFTGMPSEMCQMSFAGFTKIKGVPLTPLLLKNLPKQSQDQAAKDLARFLSELHSINISGFKSNLVLDFREKINEDNKKIKKLLSRELKGHQMKKVDDFYRDILDNEIYFKYYPCLIHNDFSSDHILFDTEKNTICGIIDFGDAAISDPDNDFISLMEDDEEYGMEFVSKILNHYKHKDIPTVLEKYMMKEKYWSFEKIIYGKEYGYMDWYEEGLNEIRSIKIK | not failed |
| NGQSDVKHIGILQYVEHPSLTATRKGFIKELAKEGYKDGKNIKIEYKNAQGDQSNIQSISEKLIKDNKLVLGIATPAAQSLTTVSTETPILFTAVTDPVSAELVKSMKKPEGLATGTSDMSPIKKQVSLLRKVMPKVKRVGIMYTTSERNSEVQVKQAKKIFQEAGIKTSVKGISSTNDVQDTAKSLMSKTEVIFVPTDNIIASSVTLLGNLSKELKVPVVGGSADMVPSGLLFSYGADYEALGRQTARQAVKILKGKDVAKVPSEYPQNLKVVVNEDMAKELGIDVSSIK | not failed |
| MLQNIPTHVIGGPLGAGKTSLIKRLLAQKPAHERWAVLINEFGQIGLDAALLTTTADGIALGEVAGGCLCCVNGVPFQIGLGRLLRKARPDRLLIEPSGLGHPAQLMAQLREAPWRGVLTVQPGVMVLDAAAMATGQPLPATQQEALAEAGLVVMNKSEQLDEAARQALAEQMKPCALLWTRHADLSLSRLPGFVEGTAVDKHAVDNLTLPNSIGRLPALWADPNVPICLSQTSAEGWSVGWRWHPSQQFDLQRVLHWLEGMAWRRAKVVIHSEGGWYSGNVLEGAPLAWQISEWRQDSRLELIFSAPQDVDTLQAQMAGCLA | failed |
| MTSASAPSFNPGKGPGSAVGIALLGFGTVGTEVMRLMTEYGDELAHRIGGPLEVRGIAVSDISKPREGVAPELLTEDAFALIEREDVDIVVEVIGGIEYPREVVLAALKAGKSVVTANKALVAAHSAELADAAEAANVDLYFEAAVAGAIPVVGPLRRSLAGDQIQSVMGIVNGTTNFILDAMDSTGADYADSLAEATRLGYAEADPTADVEGHDAASKAAILASIAFHTRVTADDVYCEGISNISAADIEAAQQAGHTIKLLAICEKFTNKEGKSAISARVHPTLLPVSHPLASVNKSFNAIFVEAEAAGRLMFYGNGAGGAPTASAVLGDVVGAARNKVHGGRAPGESTYANLPIADFGETTTRYHLDMDVEDRVGVLAELASLFSEQGISLRTIRQEERDDDARLIVVTHSALESDLSRTVELLKAKPVVKAINSVIRLERD | failed |
| MGNLPPHYGGSVNLLIAALGVLGVASSGPLIAGTLGATSVTALAIAFWRNAIGAVVMAGPVVIREPKAFGRITRREFGWSAVAAVALAFHFACFITALQLTSVAAATALVCLQSGWIAVFQLFRGTRHRWPVLVGLGIAFGGVVAITGFDMGSSPEALLGDLLALAGGALAGLYTLAGGKARQSMGTGTYTTLCYGMCAAIVAVMALFSGQPLAGFDAGGWLGIIAITVCAQLVGHTAFNHLLATMSPLLVSMIILLEIPGAAILAAIFLNETLPAGTYAGLALILVGLAVVVSGQRRGRPVADRREAELGAD | failed |
| MNITGIIAEYNPMHNGHIHHLEKTKEICKSDVILCVMSGDFVQRGEPAIIDKWSRAYAALSSGVDLVIELP | failed |
| MPLTDTPPSVPQKPRRGRPRGAPDASLAHQSLIRAGLEHLTEKGYSSVGVDEILKAARVPKGSFYHYFRNKADFGLALIEAYDTYFARLLDQAFLDGSLAPLARLRLFTRMAEEGMARHGFRRGCLVGNLGQEMGALPDDFRAALIGVLETWQRRTAQLFREAQACGELSADHDPDALAEAFWIGWEGAILRAKLELRPDPLHSFTRTFGRHFVTRTQE | not failed |
| KPSQEGGKGGSEKPKRPVSAMFIFSEEKRRQLQEERPELSESELTRLLARMWNDLSEKKKAKYKAREAALKAQSERK | not failed |
| MALLKWIPARGTLPLSPKWVATTLADASPDSVPVLFLHGTLGSPGNFERPAQRLAQLGRPFFAPAYGEHGTADLDRSTAELLRYVDHLRDMGIKQVDIVGHSAGGLQGLRIAHARPGFVRKLIGLGAAFRGVPRTVRFKPVVKLITGQAVIQLTQEIPAELPDGVELVSIYSTADHIVPVASSTLGELIEITDIRHEDLPRQADVIMEALGYPAETDSPTD | failed |
| MNRVIACIDSSPCINAIAEAAAWVARQTKRELVLLQILDYYPASYHLGEISGVIGFESNAMLLKELAELEQKQSDLAIDYSNNLLKHISDMILEKYGIQSTKIQEKGDFLEQSFNVLRETDFVIIGKVGERAAEKNKPIGSNVENFIRGANCTVMTVGEHFKIPTRFIFAYEYSPTCLNLMQRIAQSDLLKTLQCHLLYVGDHPEVLKDPEEFLKNAGLDVITVYRYGDVAENILEYQKELGIQMIVLGAFSHSKIHQFFLGSIATSIFRNATVPLLVAK | failed |
| MNARHARYPFLGDARDAVEEAGVDLARVVTEDDAVVERARERVVSALTDGTIGEPAATVSTRVEVLSYPVARVLVSIVDESVLVRKYATAEADAAYDRFTADESTDTDLKSVSDTTRVSRDTLLSEFDLRAHVHATPDAHTVDVPTYLLLASSLRDDDWRLVNRALDDGRVPVTDAELDTLIREAIRERVADGLPLSVPDQIADALDEPVAAIQDALADLDLTREIDTVVPELFPPCMKHLLDQVQRGDHLPHHARFAITSFLSNVGLSTDEIVDIYEVNPGFGEEMTRYQTDHIQGDSSPTEYTAPSCATMKAYGNCVNPDDLCDAINHPLSYYEVKLDDGDDDDLADWRDREDDDSPD | failed |
